Reference: patent US20200283515A1 (HUMANITAS MIRASOLE S P A, published 2020)
Ends that are not written are not given here. * marks the point of attachment. Biotin = O=C1N[C@H]2[C@H](CS[C@H]2CCCCC(=O)*)N1; Ahx = NCCCCCC(=O)O

Tests used:
[1] = target: T1, recombinant human Migration Stimulating Factor (rhMSF) (human, UniProt P02751 32-647); assay: immunoaffinity chromatography on a column coupled to 1G5.3
T1 construct: Secreted by the CHO-3E6 clone; also called hrMSF; human recombinant MSF
Protocol: Recombinant human MSF was purified from the conditioned medium of CHO-3E6 by immunoaffinity chromatography (IAC). […] The 1G5.3 column was extensively washed at 5 ml/min with buffer A followed by buffer B (50 mM Tris-HCl, 500 mM NaCl, pH 7.00), and bound rhMSF was eluted with buffer C (3.5 M MgCl2) in a total volume of 4 ml. Homogeneity of the eluted protein was assessed using an analytical Superdex 200 10/300 GL gel filtration column (GE Healthcare), equilibrated and eluted at 0.5 ml/min with buffer B on an AKTA Purifier FPLC system. In addition, aliquots of conditioned medium (input), unbound material (flow through) and eluted protein (eluate) from IAC were resolved on NuPAGE Novex Bis-Tris 10% gels (Thermo Fisher Scientific, Waltham, Mass.) under denaturing and reducing conditions (i.e., in the presence of dithiothreitol). […] Membranes were developed with Immobilon western HRP substrate (Merck Millipore, Darmstadt, Germany) and chemiluminescence recorded on a Chemidoc MP system (Bio-Rad). Throughout the purification process, total protein content was determined using a Bradford protein assay (Bio-Rad) and rhMSF specific titres were measured with an ELISA MSF assay made “in-house” as described below.

[2] = target: T2, human Fibronectin 1 (hFn1) (human, UniProt P02751 32-2477); assay: indirect ELISA, titration of purified 1G5.3 on coated hFn1
T2 construct: Bought from Calbiochem (Cat No 341635)
Protocol: ELISA plates (Nunc Maxisorb immunoplates Cat. No.: 446612) were coated (0/N at 4° C.) with His-MSF (1-0.5 μg/well), supernatant from CHO-3E6 (50 μl) or hFn1 (1 μg/well), diluted in 15 mM Na carbonate buffer (pH9.6). After coating plates are washed three times with PBS+/+ and 0.05% Tween 20 (washing buffer), then non-specific interactions are blocked by incubation for 2 h at room temperature with 5% (w/v) dry milk in washing buffer. Wells were washed three times with washing buffer, then aliquots of rabbit polyclonal antiserum, supernatants from anti-MSF hybridomas or purified 1G5.3 diluted in washing buffer were added and incubated 1 h at room temperature. Anti-rabbit IgG or anti-mouse IgG labelled with horse-radish peroxidase (Cat No: GENA934 and GENA931 respectively, GE […]) were then added (1/2000 in washing buffer) and incubated 1 h at room temperature. Reaction was developed with 3,3′,5,5′-tetramethylbenzidine (TMB; 1 Step™ ULTRA TMB-ELISA, Thermo Scientific, Rockford, Ill., USA; Cat No: 34019) and stopped with 2N H₂SO₄ before reading absorbance at 450 nm with an automated plate reader (Versamax microplate reader). Baseline was obtained adding anti-MSF antibody on buffer-coated wells.
mAb 1G5.3 was purified from culture supernatant of hybridoma cells by affinity chromatography on Protein-G sepharose. […] The purified antibody was finally analyzed in ELISA. […]

[3] = target: T3, human Migration Stimulating Factor (MSF), natural protein in human cancer tissues (human, UniProt P02751 32-647); assay: immunohistochemistry on paraffin sections of breast and lung cancer
T3 construct: Natural MSF as stained in formalin-fixed paraffin-embedded sections of breast and lung cancer; also called human MSF
Protocol: Paraffin-embedded human tissue sections were cut and kept overnight at 37° C. Sections were dewaxed in Bioclear. Antigen unmasking was performed in a Decloaker Chamber in DIVA Buffer 1× (Biocare Medical Cat No: DV2004) for 3 minutes at 125° C. and 5 minutes at 90° C.
After blocking endogenous peroxidases with Peroxidized-1 (Biocare Medical Cat No: PX968) for 15 minutes, non-specific binding sites were blocked with Background Sniper solution (Biocare Medical Cat No: BS966) for 30 minutes. Human tissue samples were then incubated 1 h with 1G5.3 (1/150-1/300) to identify MSF, or with mouse monoclonal anti-human CD68 (Dako Cat No: M0876, clone PG-M1, 780 μg/ml for 1 h) to identify macrophages. […] Then the reactions were developed with 3,3′-Diaminobenzidine tetrahydrochloride (Biocare Medical Cat No: DB801). Slides were counterstained for 3 min with haematoxylin solution.

[4] = target: T4, biot-VSIPPRNLGY peptide (biot-Ahx-VSIPPRNLGY) (human); assay: indirect ELISA, peptide captured on NeutrAvidin, 1G5.3 at 10 ng/ml (FIG. 20A)
T4 construct: Synthetic; captured on NeutrAvidin-coated plates; also called unique MSF decapeptide; C-terminal unique tail of MSF
T4 peptide: {Biotin-Ahx}-VSIPPRNLGY
Protocol: FIG. 20. Indirect ELISA analysis of the interaction of mAb7.1 and 1G5.3 with biot-[…] and rhMSF. A) The biot-[…] peptide (SEQ ID NO:11) (spanning the aa 648-657 sequence at the C-terminus of human MSF) was captured onto Maxisorb plates that had been coated with NeutrAvidin. […] B) Maxisorb plates were coated with rhMSF, and incubated with mAb7.1 hybridoma cultures or purified 1G5.3. […] Wells containing NeutrAvidin (NeutrAvidin in A) or PBS−/− (PBS in B) only were taken as negative controls. Shown are plots from one out of two independent experiments, each performed in duplicate.
Nunc Maxisorb immunoplates were coated (0/N at 4° C.) with NeutrAvidin protein (1 μg/well; Thermo Scientific, Rockford, Ill., USA; Cat No: 31000) in PBS−/−. Biot-[…] (SEQ ID NO:11) peptide (100 μl/well, 10 μg/ml in PBS+/+ containing 0.05% (v/v) Tween 20, washing buffer) was added and captured on the NeutrAvidin layer for 1 h at room temperature; this allowed N→C orientation of the peptide, thus mimicking its topological organization in the context of the MSF protein [19]. Uncoated sites were blocked by incubation for 2 h at room temperature with 2% (w/v) bovine serum albumin (BSA, Sigma Aldrich; Cat No: A7030) in PBS+/+. […] Each sample was analyzed in duplicate and results were reported as mean±SD.

[5] = target: T1, recombinant human Migration Stimulating …; assay: sandwich ELISA, 1G5.3-F(ab)′2 coated, rhMSF standard curve
Protocol: To measure MSF levels in biological fluids a sandwich ELISA has been developed. To this aim ELISA plates were incubated O/N at 4° C. with 250 ng/well of 1G5.3 or 500 ng/well of the 1G5.3-F(ab)′2 fragment diluted in PBS−/−, pH 7.0. After coating, plates were washed three times with 300 μl of washing buffer and then blocked with 5% dry milk for 2 h at 37° C. 100 μl of human plasma [informed consents were obtained] diluted 1/10 in washing buffer containing 2% Bovine Serum Albumin were then added and incubated for 1 h at room temperature. In the same plate a standard curve was generated using purified recombinant human MSF. After washing, plates were incubated with commercial biotinylated polyclonal Sheep IgG recognizing human hFn1 (0.25 μg/ml in washing buffer; R&D Cat No: BAF1918) for 1 h at room temperature. Finally, 100 μl of peroxidase-streptavidin (BioSpa Cat No: SB01-161) diluted 1/10000 in washing buffer were added and incubated 1 h at room temperature. Plates were then washed and incubated with 100 μl/well of the chromogenic substrate TMB before blocking with 2N H2SO4. Absorbance was read at 450 nm as described above. Linear regression was used to calculate MSF concentration in plasma samples from the standard curve made with recombinant MSF.
The 1G5.3-F(ab)′2 fragment was then tested in the sandwich ELISA following the same procedure outlined above. […]

T1 sequence (P02751 other isoform, or with tags, fused parts or gaps limits assumed): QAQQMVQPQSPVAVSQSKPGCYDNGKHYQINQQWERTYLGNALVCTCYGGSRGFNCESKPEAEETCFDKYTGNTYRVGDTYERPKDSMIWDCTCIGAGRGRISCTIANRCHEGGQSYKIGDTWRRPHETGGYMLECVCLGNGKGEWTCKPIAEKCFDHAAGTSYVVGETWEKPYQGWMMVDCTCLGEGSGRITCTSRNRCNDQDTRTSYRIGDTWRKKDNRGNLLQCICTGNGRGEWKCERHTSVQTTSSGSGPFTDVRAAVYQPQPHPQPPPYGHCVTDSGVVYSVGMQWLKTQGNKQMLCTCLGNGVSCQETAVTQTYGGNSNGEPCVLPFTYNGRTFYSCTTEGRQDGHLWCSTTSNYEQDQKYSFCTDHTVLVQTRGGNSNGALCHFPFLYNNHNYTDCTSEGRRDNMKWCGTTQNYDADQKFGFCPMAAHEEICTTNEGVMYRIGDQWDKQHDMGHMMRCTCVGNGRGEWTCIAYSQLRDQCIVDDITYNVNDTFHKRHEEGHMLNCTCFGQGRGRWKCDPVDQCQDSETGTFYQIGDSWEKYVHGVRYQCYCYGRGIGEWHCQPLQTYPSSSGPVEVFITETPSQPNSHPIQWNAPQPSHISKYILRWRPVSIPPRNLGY
T2 sequence (P02751 other isoform, or with tags, fused parts or gaps limits assumed): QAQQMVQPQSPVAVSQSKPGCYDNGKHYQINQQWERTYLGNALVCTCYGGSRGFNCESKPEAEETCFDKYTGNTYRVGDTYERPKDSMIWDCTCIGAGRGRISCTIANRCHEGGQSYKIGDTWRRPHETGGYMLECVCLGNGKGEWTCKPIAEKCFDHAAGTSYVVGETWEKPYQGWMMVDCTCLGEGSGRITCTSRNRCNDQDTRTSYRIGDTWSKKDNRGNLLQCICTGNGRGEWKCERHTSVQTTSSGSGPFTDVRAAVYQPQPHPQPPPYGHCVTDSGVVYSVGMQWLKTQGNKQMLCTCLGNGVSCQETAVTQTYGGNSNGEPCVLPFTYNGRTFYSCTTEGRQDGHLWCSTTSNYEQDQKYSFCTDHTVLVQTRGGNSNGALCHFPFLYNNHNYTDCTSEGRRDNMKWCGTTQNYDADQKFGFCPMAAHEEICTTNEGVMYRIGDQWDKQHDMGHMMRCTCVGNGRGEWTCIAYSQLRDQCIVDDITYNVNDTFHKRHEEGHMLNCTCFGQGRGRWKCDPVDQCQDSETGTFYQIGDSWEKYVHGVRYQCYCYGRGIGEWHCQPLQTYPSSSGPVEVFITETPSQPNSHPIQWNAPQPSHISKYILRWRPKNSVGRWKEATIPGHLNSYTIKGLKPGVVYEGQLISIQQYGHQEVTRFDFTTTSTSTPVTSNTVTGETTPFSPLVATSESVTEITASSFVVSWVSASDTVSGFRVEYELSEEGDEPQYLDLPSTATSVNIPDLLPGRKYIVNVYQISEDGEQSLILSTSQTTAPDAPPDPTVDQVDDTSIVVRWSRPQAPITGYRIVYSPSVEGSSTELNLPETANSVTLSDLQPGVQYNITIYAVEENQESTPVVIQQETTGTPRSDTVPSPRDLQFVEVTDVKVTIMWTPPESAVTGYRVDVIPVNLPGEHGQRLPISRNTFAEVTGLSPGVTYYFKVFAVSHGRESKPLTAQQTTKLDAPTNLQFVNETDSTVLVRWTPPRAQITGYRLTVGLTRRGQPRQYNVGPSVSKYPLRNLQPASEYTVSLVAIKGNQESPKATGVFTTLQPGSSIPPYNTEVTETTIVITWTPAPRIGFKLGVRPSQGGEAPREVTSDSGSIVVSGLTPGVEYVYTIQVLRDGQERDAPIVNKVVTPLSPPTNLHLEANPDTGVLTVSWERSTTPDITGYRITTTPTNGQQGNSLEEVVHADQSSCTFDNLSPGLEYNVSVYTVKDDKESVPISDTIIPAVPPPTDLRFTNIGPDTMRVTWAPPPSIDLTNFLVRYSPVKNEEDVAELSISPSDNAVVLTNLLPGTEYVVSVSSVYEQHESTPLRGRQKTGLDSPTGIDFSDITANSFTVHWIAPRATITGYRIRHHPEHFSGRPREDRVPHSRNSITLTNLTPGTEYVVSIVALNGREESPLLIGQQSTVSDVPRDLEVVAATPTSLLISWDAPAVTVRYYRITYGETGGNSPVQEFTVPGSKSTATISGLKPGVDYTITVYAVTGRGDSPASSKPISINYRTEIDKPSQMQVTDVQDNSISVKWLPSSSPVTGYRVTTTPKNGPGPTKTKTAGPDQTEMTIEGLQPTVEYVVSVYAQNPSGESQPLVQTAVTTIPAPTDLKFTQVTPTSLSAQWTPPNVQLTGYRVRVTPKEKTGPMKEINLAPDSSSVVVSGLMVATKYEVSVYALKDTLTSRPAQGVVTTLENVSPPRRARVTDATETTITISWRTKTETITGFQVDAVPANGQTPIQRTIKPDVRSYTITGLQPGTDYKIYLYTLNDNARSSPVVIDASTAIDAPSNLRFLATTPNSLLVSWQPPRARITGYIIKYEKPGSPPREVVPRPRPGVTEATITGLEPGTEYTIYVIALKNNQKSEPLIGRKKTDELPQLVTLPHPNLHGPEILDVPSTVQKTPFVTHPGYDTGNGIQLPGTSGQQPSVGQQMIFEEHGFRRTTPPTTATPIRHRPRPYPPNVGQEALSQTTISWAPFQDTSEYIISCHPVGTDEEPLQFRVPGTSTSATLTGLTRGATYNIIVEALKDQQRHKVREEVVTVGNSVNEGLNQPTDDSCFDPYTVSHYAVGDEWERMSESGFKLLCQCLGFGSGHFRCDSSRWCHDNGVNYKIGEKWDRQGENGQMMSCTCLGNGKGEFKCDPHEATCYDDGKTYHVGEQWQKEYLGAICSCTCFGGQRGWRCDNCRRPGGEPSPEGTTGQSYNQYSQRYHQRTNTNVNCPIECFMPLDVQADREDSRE

Row | Binder | binding result [1] | binding result [2] | binding result [3] | binding result [4] | binding result [5]
1 | monoclonal antibody 1G5.3 (antibody, mouse IgG1, kappa, V domains shown, Mouse IgG1, kappa; Used purified (Protein G) or as hybridoma supernatant; also called mAb 1G5.3; 1G5.3 mAb) VH: EVKIEESGGGLVQPGGSMKLSCVASGFTFSNDWMNWVRQSPEKGLEWVAEIRMKSDNYATYYAESVKGRFTISRDDSKNSVYLQMNNLRAEDNGIYYCTSWDYWGQGTTLTVSS VL: DIVMSQSPSSLAVSTGEKVTMNCRSSHYLLNSRTRKNFLSWYQQKPGQSPQLLIYWASTRYSGVPDRFTGSGSGTDFTLTISSVQAEDLAVYYCKQSYNLHTFGGGTKLEIKR | binds | no binding (tested: 10 µg/ml to 0.005 ng/ml of 1G5.3) | binds | binds | 
2 | 1G5.3-F(ab)′2 fragment (other, not shown: a dimerising Fc or GST, Made from purified 1G5.3 by pepsin digestion; 110 kDa non-reduced; also called anti-human MSF 1G5.3 F(ab)′2 fragment) heavy: EVKIEESGGGLVQPGGSMKLSCVASGFTFSNDWMNWVRQSPEKGLEWVAEIRMKSDNYATYYAESVKGRFTISRDDSKNSVYLQMNNLRAEDNGIYYCTSWDYWGQGTTLTVSS light: DIVMSQSPSSLAVSTGEKVTMNCRSSHYLLNSRTRKNFLSWYQQKPGQSPQLLIYWASTRYSGVPDRFTGSGSGTDFTLTISSVQAEDLAVYYCKQSYNLHTFGGGTKLEIKRADAAPTVSIFPPSSEQLTSGGASVVCFLNNFYPKDINVKWKIDGSERQNGVLNSWTDQDSKDSTYSMSSTLTLTKDEYERHNSYTCEATHKTSTSPIVKSFNRNEC |  |  |  |  | binds
